Measurements as given in patent publication US20240335553A1.

Legend:
[1] = molecular target: cation-independent mannose-6-phosphate receptor (CI-MPR), recombinant human IGF-II R (human) (UniProt P11717); assay: SPR (Biacore T200), CI-MPR immobilized on a CM5 chip, antibody as analyte in 2-fold dilutions from 500 nM to 0.98 nM
[2] = molecular target: cation-independent mannose-6-phosphate receptor (CI-MPR), recombinant human IGF-II R (human) (UniProt P11717); assay: SPR, CI-MPR immobilized
[3] = molecular target: cation-independent mannose-6-phosphate receptor (CI-MPR), recombinant human IGF-II R (human) (UniProt P11717); assay: SPR, CI-MPR immobilized, 1:1 Langmuir global fit
[4] = molecular target: cation-independent mannose-6-phosphate receptor (CI-MPR), recombinant human IGF-II R (human) (UniProt P11717); assay: SPR, CI-MPR immobilized, antibody as analyte, 2-fold dilutions from 500 nM
[5] = molecular target: epidermal growth factor receptor (EGFR) (human) (UniProt P00533); assay: cell-based or functional assay
[6] = molecular target: cation-independent mannose-6-phosphate receptor (CI-MPR), recombinant human IGF-II R (human) (UniProt P11717); assay: SPR, CI-MPR immobilized, steady-state fitting

Substance | Kd [1] [nM] | fold affinity against glycoform (9) [2] [fold] | Kd [3] [nM] | fold affinity against glycoform (3) [2] [fold] | Kd [4] [nM] | degradation of total EGFR in HepG2 cells (Western blot, 48 h, 10 nM antibody) [5] [%] | Kd [6] [nM]
cetuximab M6P-glycoform 10 (cetuximab carrying the bis-phosphorylated heptasaccharide N-glycan) (antibody) | 29.6 | 2 | 29.6 | – | – | – | –
trastuzumab M6P-glycoform 7 (trastuzumab carrying the bis-phosphorylated heptasaccharide moiety) (antibody) | 5.4 | – | 5.4 | 4 | – | – | –
cetuximab M6P-glycoform 9 (cetuximab carrying the M6P tetrasaccharide glycan at the Fc domain) (antibody) | 70.3 | – | 70.3 | – | 72.4 | 57 | –
trastuzumab M6P-glycoform 3 (trastuzumab carrying the M6P tetrasaccharide glycan at the Fc domain) (antibody) | 28.6 | – | 28.6 | – | 30.2 | – | –
trastuzumab M6P-glycoform 6 (trastuzumab carrying the M6P-Man3GlcNAc2 glycan) (antibody) | – | – | – | – | – | – | 700
